# Laboratory results taken from publication PMC10651883, “M. mazei glutamine synthetase and glutamine synthetase-GlnK1 structures reveal enzyme regulation by oligomer modulation” (Nature Communications, 2023).
# Key:
# Mm GS = target: T1, Mm GS (Methanosarcina mazei, UniProt Q8PY99); experiment: cryo-EM structure, […] A; type: binding; details: formed in situ from ATP; with Met-Sox-P; 5 mM MgCl2, pH 7.5; active site
# T1 construct: gene glnA1; labile dodecamer (two hexamer rings), active site between two subunits; catalytic residues Asp57, Glu307
# [1] = target: the molecule itself; experiment: mass photometry; protein at 75 nM final, 20 mM Tris pH 7.5, 150 mM NaCl, room temperature; Refeyn OneMP; four measurements
# [2] = target: the molecule itself; experiment: cryo-EM structure; apo Mm GS at ~20 uM (1.0 mg/mL), 12.5 mM Tris pH 7.5, 5 mM MgCl2, 150 mM NaCl, 2.5% glycerol, 1 mM bME; dodecamer and partial oligomer from one dataset
# [3] = target: the molecule itself; experiment: crystal structure; Mm GS(R167L-A168G), 35% PEG 200, 0.1 M sodium citrate pH 5.5; three subunits in the asymmetric unit, symmetry generates the dodecamer
# [4] = target: the molecule itself; experiment: crystal structure; Mm GS-GlnK1 complex formed by mixing ~2:1 (excess GlnK1) and SEC; 30% PEG 400, 0.1 M sodium cacodylate pH 6.5, 0.1 M LiSO4
# [5] = target: T2, Methanosarcina mazei glutamine synthetase (Methanosarcina mazei), Q8PY99; experiment: fluorescence polarisation; apparent; GS titrated to saturation into 1 nM Fluorescein-12-ATP, then GlnK1 titrated in; 25 mM Tris pH 7.5, 100 mM NaCl, 1 mM MgCl2; details: remark: other sources report otherwise
# T2 chain: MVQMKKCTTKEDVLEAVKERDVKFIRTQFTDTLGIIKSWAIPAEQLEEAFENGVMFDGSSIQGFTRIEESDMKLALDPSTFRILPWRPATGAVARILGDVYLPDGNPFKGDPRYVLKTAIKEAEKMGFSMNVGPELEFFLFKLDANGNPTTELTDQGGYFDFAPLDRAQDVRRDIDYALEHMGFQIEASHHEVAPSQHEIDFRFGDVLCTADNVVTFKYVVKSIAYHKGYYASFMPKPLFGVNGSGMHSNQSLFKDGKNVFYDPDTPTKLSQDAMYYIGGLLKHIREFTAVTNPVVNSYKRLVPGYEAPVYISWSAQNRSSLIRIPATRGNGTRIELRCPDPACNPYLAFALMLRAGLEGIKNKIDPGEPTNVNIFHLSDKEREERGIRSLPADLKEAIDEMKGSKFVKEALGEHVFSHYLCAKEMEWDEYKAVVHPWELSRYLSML
molecule,measurement,setting,value
Nc1ncnc2c1ncn2[C@@H]1O[C@H](COP(=O)(O)OP(=O)(O)O)[C@@H](O)[C@H]1O [ADP],"cryo-EM structure, 2.7 A",Mm GS,"In the Mm GS TS structure, the ADP is anchored into the active site pocket"
"Methanosarcina mazei glutamine synthetase (enzyme, glutamine synthetase (GS) of Methanosarcina mazei; gene bought from Genscript, in pET15b; Oligomeric state depends on concentration: dimers at 75 nM, dodecamers and partial oligomers at about 20 uM (1 mg/mL); also called Mm GS; WT Mm GS; source: E. coli C41(DE3), purified (cobalt NTA TALON)) MVQMKKCTTKEDVLEAVKERDVKFIRTQFTDTLGIIKSWAIPAEQLEEAFENGVMFDGSSIQGFTRIEESDMKLALDPSTFRILPWRPATGAVARILGDVYLPDGNPFKGDPRYVLKTAIKEAEKMGFSMNVGPELEFFLFKLDANGNPTTELTDQGGYFDFAPLDRAQDVRRDIDYALEHMGFQIEASHHEVAPSQHEIDFRFGDVLCTADNVVTFKYVVKSIAYHKGYYASFMPKPLFGVNGSGMHSNQSLFKDGKNVFYDPDTPTKLSQDAMYYIGGLLKHIREFTAVTNPVVNSYKRLVPGYEAPVYISWSAQNRSSLIRIPATRGNGTRIELRCPDPACNPYLAFALMLRAGLEGIKNKIDPGEPTNVNIFHLSDKEREERGIRSLPADLKEAIDEMKGSKFVKEALGEHVFSHYLCAKEMEWDEYKAVVHPWELSRYLSML",stoichiometry N,[1],2
same,stoichiometry N,[2],12
"Mm GS(R167L-A168G) (enzyme, Methanosarcina mazei, glutamine synthetase (GS) of Methanosarcina mazei with R167L and A168G; gene bought from Genscript, in pET15b; everywhere else R167L; also called mutant Mm GS; source: E. coli C41(DE3), purified (cobalt NTA TALON)) MVQMKKCTTKEDVLEAVKERDVKFIRTQFTDTLGIIKSWAIPAEQLEEAFENGVMFDGSSIQGFTRIEESDMKLALDPSTFRILPWRPATGAVARILGDVYLPDGNPFKGDPRYVLKTAIKEAEKMGFSMNVGPELEFFLFKLDANGNPTTELTDQGGYFDFAPLDLGQDVRRDIDYALEHMGFQIEASHHEVAPSQHEIDFRFGDVLCTADNVVTFKYVVKSIAYHKGYYASFMPKPLFGVNGSGMHSNQSLFKDGKNVFYDPDTPTKLSQDAMYYIGGLLKHIREFTAVTNPVVNSYKRLVPGYEAPVYISWSAQNRSSLIRIPATRGNGTRIELRCPDPACNPYLAFALMLRAGLEGIKNKIDPGEPTNVNIFHLSDKEREERGIRSLPADLKEAIDEMKGSKFVKEALGEHVFSHYLCAKEMEWDEYKAVVHPWELSRYLSML",stoichiometry N,[3],12
"Methanosarcina mazei GlnK1 (natural protein, GlnK1, PII family nitrogen regulatory protein of Methanosarcina mazei; gene bought from Genscript, in pET15b; Trimer in the crystal structure of the complex with GS; also called Mm GlnK1; WT GlnK1; source: E. coli C41(DE3), purified (cobalt NTA TALON)) MVAMKYVIAMIRPERLDAVKRELQKIEVSRLTVSSVSGYGAQKGYMEIYRAMEYDANLLEKIKIEIAVNDEFLEPTIEAIKTGAKGSDGYVGSGKIFVLPLENVIRIRTNETGPEAI",stoichiometry N,[4],3
same,Kd,[5],6.4 µM
"Bacillus subtilis glutamine synthetase (enzyme, glutamine synthetase (GS) of Bacillus subtilis; also called Bs GS; apo Bs GS) AKYTREDIEKLVKEENVKYIRLQFTDILGTIKNVEIPVSQLGKALDNKVMFDGSSIEGFVRIEESDMYLYPDLNTFVIFPWTAEKGKVARFICDIYNPDGTPFEGDPRNNLKRILKEMEDLGFSDFNLGPEPEFFLFKLDEKGEPTLELNDKGGYFDLAPTDLGENCRRDIVLELEEMGFEIEASHHEVAPGQHEIDFKYAGAVRSCDDIQTFKLVVKTIARKHGLHATFMPKPLFGVNGSGMHCNLSLFKNGVNAFFDENADLQLSETAKHFIAGIVKHATSFTAVTNPTVNSYKRLVPGYEAPCYVAWSAQNRSPLIRIPASRGISTRVEVRSVDPAANPYLALSVLLAAGLDGIKNKLEAPAPIDRNIYVMSKEERMENGIVDLPATLAEALEEFKSNEVMVKALGEHLFEHFIEAKEIEWDMFRTQVHPWEREQYMSQY",stoichiometry N,[1],12
